Measurements taken from publication PMC8357123, “Modeling of DNA binding to the condensin hinge domain using molecular dynamics simulations guided by atomic force microscopy” (PLoS Computational Biology, 2021).

Target: T1, Smc4 (S. cerevisiae (budding yeast), UniProt Q12267 1-1418)
T1 construct: Smc4, subunit of the budding yeast condensin complex; The holo-complex was purified over HisTrap and Strep-Tactin; also called condensin subunit Smc4
T1 sequence (looked up): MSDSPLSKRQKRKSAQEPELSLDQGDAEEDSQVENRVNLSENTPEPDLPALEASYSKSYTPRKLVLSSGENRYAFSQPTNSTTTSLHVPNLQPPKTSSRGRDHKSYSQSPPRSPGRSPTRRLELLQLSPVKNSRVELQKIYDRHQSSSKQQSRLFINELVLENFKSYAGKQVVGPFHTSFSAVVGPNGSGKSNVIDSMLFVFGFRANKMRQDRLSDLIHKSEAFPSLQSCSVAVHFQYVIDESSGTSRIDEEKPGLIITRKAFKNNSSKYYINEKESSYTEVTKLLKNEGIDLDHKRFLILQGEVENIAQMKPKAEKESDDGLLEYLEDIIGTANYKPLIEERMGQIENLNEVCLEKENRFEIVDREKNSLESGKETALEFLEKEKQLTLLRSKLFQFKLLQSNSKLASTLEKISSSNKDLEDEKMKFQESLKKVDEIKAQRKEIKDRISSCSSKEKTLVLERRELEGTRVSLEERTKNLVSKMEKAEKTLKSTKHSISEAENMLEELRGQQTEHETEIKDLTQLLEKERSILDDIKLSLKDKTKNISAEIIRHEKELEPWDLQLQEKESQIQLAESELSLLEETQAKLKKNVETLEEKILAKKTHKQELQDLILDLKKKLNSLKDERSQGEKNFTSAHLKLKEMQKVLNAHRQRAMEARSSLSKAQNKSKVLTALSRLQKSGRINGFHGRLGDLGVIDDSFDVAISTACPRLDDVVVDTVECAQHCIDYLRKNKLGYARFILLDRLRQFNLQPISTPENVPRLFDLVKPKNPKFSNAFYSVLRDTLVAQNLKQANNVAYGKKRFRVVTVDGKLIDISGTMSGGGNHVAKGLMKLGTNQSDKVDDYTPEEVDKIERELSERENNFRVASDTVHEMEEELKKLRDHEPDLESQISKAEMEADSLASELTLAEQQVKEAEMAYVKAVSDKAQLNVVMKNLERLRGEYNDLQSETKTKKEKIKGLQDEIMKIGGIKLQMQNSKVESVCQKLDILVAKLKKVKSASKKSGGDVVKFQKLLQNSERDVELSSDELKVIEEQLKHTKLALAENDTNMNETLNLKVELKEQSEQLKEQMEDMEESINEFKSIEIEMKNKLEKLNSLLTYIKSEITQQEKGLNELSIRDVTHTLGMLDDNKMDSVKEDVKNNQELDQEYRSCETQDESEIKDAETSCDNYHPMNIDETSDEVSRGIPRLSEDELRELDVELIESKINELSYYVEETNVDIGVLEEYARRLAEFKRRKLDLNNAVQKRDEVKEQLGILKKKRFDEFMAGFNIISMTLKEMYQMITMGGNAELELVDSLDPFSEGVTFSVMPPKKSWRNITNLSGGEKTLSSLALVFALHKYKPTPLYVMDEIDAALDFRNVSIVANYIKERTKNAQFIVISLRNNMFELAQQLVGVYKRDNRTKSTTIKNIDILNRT
Experiment: high-speed atomic force microscopy (HS-AFM); 1 nM purified condensin holo-complex on bare mica in 40 mM Tris-HCl pH7.5, 125 mM KCl, 10 mM MgCl2, 1 mM DTT, 4 mM ATP; room temperature; 150 ms/frame; 36 molecules observed
Conditions: both partners purified

B1: Smc2 (natural protein, S. cerevisiae (budding yeast), UniProt P38989 1-1170, looked up)
chain: MKVEELIIDGFKSYATRTVITDWDPQFNAITGLNGSGKSNILDAICFVLGIASMSTVRASSLQDLIYKRGQAGVTKASVTIVFDNTDKSNSPIGFTNSPQISVTRQVVLGGTSKYLINGHRAPQQSVLQLFQSVQLNINNPNFLIMQGKITKVLNMKPSEILSLIEEAAGTKMFEDRREKAERTMSKKETKLQENRTLLTEEIEPKLEKLRNEKRMFLEFQSTQTDLEKTERIVVSYEYYNIKHKHTSIRETLENGETRMKMLNEFVKKTSEEIDSLNEDVEEIKLQKEKELHKEGTISKLENKENGLLNEISRLKTSLSIKVENLNDTTEKSKALESEIASSSAKLIEKKSAYANTEKDYKMVQEQLSKQRDLYKRKEELVSTLTTGISSTGAADGGYNAQLAKAKTELNEVSLAIKKSSMKMELLKKELLTIEPKLKEATKDNELNVKHVKQCQETCDKLRARLVEYGFDPSRIKDLKQREDKLKSHYYQTCKNSEYLKRRVTNLEFNYTKPYPNFEASFVHGVVGQLFQIDNDNIRYATALQTCAGGRLFNVVVQDSQTATQLLERGRLRKRVTIIPLDKIYTRPISSQVLDLAKKIAPGKVELAINLIRFDESITKAMEFIFGNSLICEDPETAKKITFHPKIRARSITLQGDVYDPEGTLSGGSRNTSESLLVDIQKYNQIQKQIETIQADLNHVTEELQTQYATSQKTKTIQSDLNLSLHKLDLAKRNLDANPSSQIIARNEEILRDIGECENEIKTKQMSLKKCQEEVSTIEKDMKEYDSDKGSKLNELKKELKLLAKELEEQESESERKYDLFQNLELETEQLSSELDSNKTLLHNHLKSIESLKLENSDLEGKIRGVEDDLVTVQTELNEEKKRLMDIDDELNELETLIKKKQDEKKSSELELQKLVHDLNKYKSNTNNMEKIIEDLRQKHEFLEDFDLVRNIVKQNEGIDLDTYRERSKQLNEKFQELRKKVNPNIMNMIENVEKKEAALKTMIKTIEKDKMKIQETISKLNEYKRETLVKTWEKVTLDFGNIFADLLPNSFAKLVPCEGKDVTQGLEVKVKLGNIWKESLIELSGGQRSLIALSLIMALLQFRPAPMYILDEVDAALDLSHTQNIGHLIKTRFKGSQFIVVSLKEGMFANANRVFRTRFQDGTSVVSIM
notes: Smc2, subunit of the budding yeast condensin complex; The holo-complex was purified over HisTrap and Strep-Tactin; also called condensin subunit Smc2
B1: binds.
